± gives the uncertainty stated by the source.
B1: Tyrosine-protein kinase Lck, residues 63 to 120; numbered along this chain, P06239 (parent)
chain: DNLVIALHSYEPSHDGDLGFEKGEQLRILEQSGEWWKAQSLTTGQEGFIPFNFVAKAN
B2: Gamma-crystallin C, residues 4 to 79; numbered along this chain, P07315 (parent)
chain: ITFYEDRAFQGRSYETTTDCPNLQPYFSRCNSIRVESGCWMLYERPNYQGQQYLLRRGEYPDYQQWMGLSDSIRSC

Variants of: B1
Test: abundance fitness (aPCA) (normalised: wild type 0, dead -1); higher = more abundant; growth selection in yeast, the domain comes from the species named
Conditions: Homo sapiens

Variant | abundance fitness
F51M | 0.137 ± 0.12
F51N | 0.043 ± 0.15
F51P | 0.07 ± 0.099
F51Q | 0.021 ± 0.12
F51R | 0.148 ± 0.076
F51T | -0.235 ± 0.12
F51V | -0.033 ± 0.082
F51Y | -0.037 ± 0.14
N52A | -0.202 ± 0.082
N52C | -0.303 ± 0.14
N52D | 0.001 ± 0.14
N52E | 0.029 ± 0.12
N52F | -0.589 ± 0.14
N52G | -0.067 ± 0.07
N52H | -0.189 ± 0.11
N52I | -0.854 ± 0.22
N52K | 0.023 ± 0.14
N52L | -0.624 ± 0.087
N52P | -0.628 ± 0.12
N52Q | -0.021 ± 0.12
N52R | -0.017 ± 0.073
N52T | -0.207 ± 0.12
N52V | -0.709 ± 0.11

Variant | abundance fitness
N52W | -0.278 ± 0.12
N52Y | -0.311 ± 0.12
F53A | -0.013 ± 0.07
F53C | -0.157 ± 0.096
F53E | -0.488 ± 0.12
F53G | -0.423 ± 0.077
F53H | -0.162 ± 0.11
F53I | -0.156 ± 0.11
F53K | -0.37 ± 0.13
F53L | -0.028 ± 0.071
F53M | -0.143 ± 0.12
F53N | -0.527 ± 0.11
F53P | -0.842 ± 0.15
F53Q | -0.293 ± 0.1
F53R | -0.196 ± 0.066
F53S | 0.032 ± 0.071
F53T | -0.214 ± 0.1
F53V | -0.268 ± 0.066
F53W | -0.107 ± 0.11
V54A | -0.663 ± 0.11
V54C | -0.375 ± 0.098
V54D | -0.926 ± 0.2
V54E | -0.709 ± 0.13

Variant | abundance fitness
V54F | -0.6 ± 0.16
V54H | -0.967 ± 0.23
V54I | -0.416 ± 0.11
V54K | -1.05 ± 0.21
V54L | -0.705 ± 0.1
V54M | -0.715 ± 0.2
V54N | -0.859 ± 0.24
V54P | -0.732 ± 0.15
V54Q | -0.901 ± 0.21
V54R | -0.813 ± 0.081
V54S | -0.751 ± 0.11
V54T | -0.45 ± 0.14
V54W | -0.754 ± 0.11
V54Y | -0.826 ± 0.16
A55C | -0.141 ± 0.12
A55D | -0.102 ± 0.11
A55E | 0.037 ± 0.09
A55F | -0.369 ± 0.13
A55G | -0.007 ± 0.057
A55H | -0.27 ± 0.12
A55I | -0.084 ± 0.14
A55K | -0.154 ± 0.13
A55L | -0.4 ± 0.1

Variant | abundance fitness
A55M | -0.12 ± 0.12
A55N | -0.231 ± 0.19
A55P | -0.835 ± 0.18
A55Q | 0.04 ± 0.14
A55R | -0.019 ± 0.06
A55T | -0.013 ± 0.1
A55V | -0.021 ± 0.076
A55W | -0.515 ± 0.11
A55Y | -0.261 ± 0.19
K56A | 0.019 ± 0.085
K56C | -0.117 ± 0.099
K56D | -0.108 ± 0.11
K56E | 0.022 ± 0.12
K56F | -0.087 ± 0.085
K56G | -0.123 ± 0.066
K56H | 0.015 ± 0.12
K56I | -0.233 ± 0.13
K56L | -0.217 ± 0.078
K56M | -0.146 ± 0.11
K56N | 0.055 ± 0.16
K56P | 0.04 ± 0.095
K56Q | -0.174 ± 0.11
K56R | -0.09 ± 0.067

Variant | abundance fitness
K56S | -0.002 ± 0.085
K56T | -0.095 ± 0.099
K56V | -0.118 ± 0.085
K56W | -0.095 ± 0.1
K56Y | -0.138 ± 0.12
A57C | -0.244 ± 0.17
A57E | 0.092 ± 0.15
A57F | -0.394 ± 0.18
A57G | -0.076 ± 0.078
A57H | -0.057 ± 0.15
A57I | -0.003 ± 0.19
A57K | -0.18 ± 0.17
A57L | 0.003 ± 0.095
A57M | -0.195 ± 0.16
A57N | -0.614 ± 0.42
A57P | -0.046 ± 0.095
A57Q | -0.112 ± 0.15
A57R | -0.093 ± 0.087
A57S | -0.098 ± 0.086
A57T | 0.008 ± 0.093
A57V | -0.023 ± 0.085
A57W | -0.132 ± 0.16
A57Y | -0.176 ± 0.27

Variants of: B2
Test: as above
Conditions: Homo sapiens

Variant | abundance fitness
LTFYEDRAFQGRSYETTTDCPNLQPYFSRCNSIRVESGCWMLYERPNYQGQQYLLRRGEYPDYQQWMGLSDSIRSC [I1L] | -0.4 ± 0.38
MTFYEDRAFQGRSYETTTDCPNLQPYFSRCNSIRVESGCWMLYERPNYQGQQYLLRRGEYPDYQQWMGLSDSIRSC [I1M] | -0.291 ± 0.16
TTFYEDRAFQGRSYETTTDCPNLQPYFSRCNSIRVESGCWMLYERPNYQGQQYLLRRGEYPDYQQWMGLSDSIRSC [I1T] | -0.722 ± 0.3
VTFYEDRAFQGRSYETTTDCPNLQPYFSRCNSIRVESGCWMLYERPNYQGQQYLLRRGEYPDYQQWMGLSDSIRSC [I1V] | -0.032 ± 0.27
IAFYEDRAFQGRSYETTTDCPNLQPYFSRCNSIRVESGCWMLYERPNYQGQQYLLRRGEYPDYQQWMGLSDSIRSC [T2A] | -0.254 ± 0.098
ICFYEDRAFQGRSYETTTDCPNLQPYFSRCNSIRVESGCWMLYERPNYQGQQYLLRRGEYPDYQQWMGLSDSIRSC [T2C] | -0.054 ± 0.35
IEFYEDRAFQGRSYETTTDCPNLQPYFSRCNSIRVESGCWMLYERPNYQGQQYLLRRGEYPDYQQWMGLSDSIRSC [T2E] | -0.473 ± 0.15
IFFYEDRAFQGRSYETTTDCPNLQPYFSRCNSIRVESGCWMLYERPNYQGQQYLLRRGEYPDYQQWMGLSDSIRSC [T2F] | 0.101 ± 0.32
IGFYEDRAFQGRSYETTTDCPNLQPYFSRCNSIRVESGCWMLYERPNYQGQQYLLRRGEYPDYQQWMGLSDSIRSC [T2G] | -0.329 ± 0.093
IIFYEDRAFQGRSYETTTDCPNLQPYFSRCNSIRVESGCWMLYERPNYQGQQYLLRRGEYPDYQQWMGLSDSIRSC [T2I] | 0.093 ± 0.25
IKFYEDRAFQGRSYETTTDCPNLQPYFSRCNSIRVESGCWMLYERPNYQGQQYLLRRGEYPDYQQWMGLSDSIRSC [T2K] | -0.039 ± 0.12
ILFYEDRAFQGRSYETTTDCPNLQPYFSRCNSIRVESGCWMLYERPNYQGQQYLLRRGEYPDYQQWMGLSDSIRSC [T2L] | -0.15 ± 0.097
IMFYEDRAFQGRSYETTTDCPNLQPYFSRCNSIRVESGCWMLYERPNYQGQQYLLRRGEYPDYQQWMGLSDSIRSC [T2M] | -0.116 ± 0.42
INFYEDRAFQGRSYETTTDCPNLQPYFSRCNSIRVESGCWMLYERPNYQGQQYLLRRGEYPDYQQWMGLSDSIRSC [T2N] | -0.002 ± 0.33
IPFYEDRAFQGRSYETTTDCPNLQPYFSRCNSIRVESGCWMLYERPNYQGQQYLLRRGEYPDYQQWMGLSDSIRSC [T2P] | -0.838 ± 0.17
IQFYEDRAFQGRSYETTTDCPNLQPYFSRCNSIRVESGCWMLYERPNYQGQQYLLRRGEYPDYQQWMGLSDSIRSC [T2Q] | -0.114 ± 0.16
IRFYEDRAFQGRSYETTTDCPNLQPYFSRCNSIRVESGCWMLYERPNYQGQQYLLRRGEYPDYQQWMGLSDSIRSC [T2R] | -0.145 ± 0.099
IVFYEDRAFQGRSYETTTDCPNLQPYFSRCNSIRVESGCWMLYERPNYQGQQYLLRRGEYPDYQQWMGLSDSIRSC [T2V] | 0.049 ± 0.13
IWFYEDRAFQGRSYETTTDCPNLQPYFSRCNSIRVESGCWMLYERPNYQGQQYLLRRGEYPDYQQWMGLSDSIRSC [T2W] | -0.201 ± 0.12

Reference: the Human Domainome abundance scans (Beltran et al. 2025)
